The test system of this data set is ATP. Kind of data set: switch fluorescence ratio, 500 uM ATP over buffer (Cy3 cluster intensity, sum of 5 cycles each) (fold (ratio)); higher = stronger signal-on switching upon ATP binding; sequences stand for … in TCGTCGGCAGCGTCAGATGTGTATAAGAGACAGTTTTTTTTTTTTTTTTTTTTTTTTT…TC. The note with it: aptamer strand: ATP DNA aptamer (quencher-CACCTGGGGGAGTATTGCGGAGGAAGG + anchor), 100 nM annealed; ATP concentration: 500 uM. In short, it runs like this:
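The quencher-labelled ATP aptamer, at 100 nM, was annealed to Cy3-labelled switching-strand clusters on a modified Illumina MiSeq flow-cell. The clusters were imaged in selection buffer, then after 15 min with 500 uM ATP at 22 °C, and this buffer/ATP cycle ran five times with NaOH stripping and re-annealing between runs. Per-cluster fluorescence ratios, summed target-cycle over summed buffer-cycle Cy3 intensity, were averaged per switch-domain sequence. Clusters outside 100-1000 RFU were excluded.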

± gives the standard deviation of the averaged measurements.
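Further: ATP exposure 15 min at 22 °C before imaging.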

Consider GCGGTACGCT, for which the switch fluorescence ratio was found to be 1.08 ± 0.091. AAACATAGGA: the switch fluorescence ratio was 0.992 ± 0.063. With CTCGCGGGTG the figure was 1.14 ± 0.11. Regarding CGTATCGTGG, the switch fluorescence ratio was determined as 1.03 ± 0.031. With CTGAGGTGGT the figure was 0.991 ± 0.046; with TTGGAAGCAT, 1.01 ± 0.036; with TTATCGGATT, 0.983 ± 0.029. With AAACCAGGGG the figure was 1.54 ± 0.11; with TAGGCTTTAG, 1.01 ± 0.012; with TTTACATTGT, 1.01 ± 0.03. With GGGTTAGACT the figure was 1.07 ± 0.086; with TACAAGGGTG, 1.1 ± 0.03.

Take GAAGAATAGG: the switch fluorescence ratio was 0.967 ± 0.015.

Take GTTGCGAGGT: the switch fluorescence ratio is 0.9872 ± 0.004. As for GCCCTGGGGA, the switch fluorescence ratio turned out to be 2.74 ± 2.4. To ATAGAGTGCG belongs 0.957 ± 0.024; to CATAGTTTGG, 1.07 ± 0.034.

In the case of TACATGTCGT, the switch fluorescence ratio worked out at 0.996 ± 0.018. With GGTTAGTAGG the figure was 0.986 ± 0.021. In the case of ATTAAAAAAT, the switch fluorescence ratio amounted to 0.98 ± 0.089. In the case of AAGTTCCGAG, the switch fluorescence ratio is 1.18 ± 0.045. On to TCGTTACAGA, for which the switch fluorescence ratio was 1.02 ± 0.045.

Take TGGCGGGGCA: the switch fluorescence ratio came out at 0.998 ± 0.035. With CGTTAAATAA the figure was 1.004 ± 0.0054; with TTATTCTTTC, 1.01 ± 0.046; with CAGGCATAAG, 0.9805 ± 0.0036. With GGCTTTGGGG the figure was 0.975 ± 0.04; with TCCGGACCGG, 0.995 ± 0.019; with TTTTGGGTAA, 1.01 ± 0.0051. To TTTTTGGATT belongs 1 ± 0.032. For the sequence GGAGGGTTGT, the switch fluorescence ratio came to 0.979 ± 0.04. To TTGATTGGCC belongs 0.958 ± 0.018; to TTCGGGGAAA, 1.02 ± 0.043. To ATCAAAGAAC belongs 1.05 ± 0.042. To AGGAAGGTCG belongs 0.969 ± 0.013. AAGGACATTA: the switch fluorescence ratio was determined as 1.042 ± 0.0014. With TAGTCAGCC the figure was 1.01 ± 0.029; with ACGAGAACGA, 1.05 ± 0.021. Turning to AAGGGTTTGT, the switch fluorescence ratio was 0.986 ± 0.017. For TTTTTATGCT, the switch fluorescence ratio turned out to be 0.99 ± 0.035. For the sequence TAATAATGGG, the switch fluorescence ratio came out at 1.02 ± 0.042. As to AGGTACGGGG, the switch fluorescence ratio stood at 0.971 ± 0.012. With GCGTTTTCGG, the switch fluorescence ratio stood at 1.02 ± 0.039. TACGGGGGTA: the switch fluorescence ratio stood at 1.02 ± 0.036. For AAACTTGGCT, the switch fluorescence ratio was 1.024 ± 0.0074. For TCTCGGGCTT, the switch fluorescence ratio came out at 0.9873 ± 0.0047. With GAGAAAATAT the figure was 1 ± 0.038; with TGAAGGAGGT, 1 ± 0.015; with GTGAGGCGGG, 1.009 ± 0.0024.

As to CAAACGGGGT, the switch fluorescence ratio stood at 1.01 ± 0.024. Regarding CTGGCCGGGC, the switch fluorescence ratio was determined as 1.03 ± 0.022. As to CGTCCGGTG, the switch fluorescence ratio stood at 1.78 ± 0.65. With CCGTTGGTAA, the switch fluorescence ratio was 1.345 ± 0.0022. With GATGTAGCTA, the switch fluorescence ratio was determined as 1.033 ± 0.00083. With GGCATATCGT the figure was 0.949 ± 0.041.

On to ATCTCGGATT, for which the switch fluorescence ratio is 0.9869 ± 0.0041. As to TTAGGAAATT, the switch fluorescence ratio came out at 1.04 ± 0.032. To GGATCGTTGA belongs 0.977 ± 0.019; to TTGTTGAAGT, 0.9966 ± 0.0072. TTCAAGATTT: the switch fluorescence ratio was found to be 0.974 ± 0.022. CATGGCACTT: the switch fluorescence ratio was 1.009 ± 0.0041.

Take CATATCGAAA: the switch fluorescence ratio turned out to be 1.013 ± 0.0033. In the case of GCTATACGTA, the switch fluorescence ratio came to 1.22 ± 0.049. With ATTCGGCGGA the figure was 1.03 ± 0.068. To TTAAAATATA belongs 0.984 ± 0.059; to CGTGACAAGA, 0.986 ± 0.056. TTTGCAGCGC: the switch fluorescence ratio was 0.998 ± 0.021. For TGGAAGTTAG, the switch fluorescence ratio stood at 0.964 ± 0.029. Turning to CAAGCATCGC, the switch fluorescence ratio came out at 0.94962 ± 2.2e-05. Consider AATCTGTCGT, for which the switch fluorescence ratio is 0.982 ± 0.054. To CCAATATAGC belongs 1.21 ± 0.016. With GGCTGTTATT the figure was 0.986 ± 0.039; with AAGGGTGTAA, 1.01 ± 0.069; with GTAACTGGGA, 1.009 ± 0.0093. On to AAGCGAGCCG, for which the switch fluorescence ratio was 1.02 ± 0.091.

With AATTGATTCT, the switch fluorescence ratio is 1.026 ± 0.0018. Regarding AGGGCCTTAG, the switch fluorescence ratio stood at 0.9733 ± 0.009. In the case of CTAGTGAGTT, the switch fluorescence ratio was found to be 0.999 ± 0.023.

Regarding AGTGTCCGAT, the switch fluorescence ratio was determined as 0.9895 ± 0.0053. Regarding CGGTCGAGGT, the switch fluorescence ratio was found to be 0.993 ± 0.038.

With GACTACCCCT, the switch fluorescence ratio was found to be 1.234 ± 0.011.

In the case of GCAGTTAGTT, the switch fluorescence ratio was 1.01 ± 0.033. Consider TTTTGAGGCT, for which the switch fluorescence ratio stood at 1.01 ± 0.073.

Regarding CGGGTTTGAC, the switch fluorescence ratio was 0.984 ± 0.047. To TTGGTTTTGT belongs 0.995 ± 0.024; to TGTAGGAGAC, 1.24 ± 0.33; to GCTCCATCGA, 1.11 ± 0.015.

Turning to GGGGACGGAC, the switch fluorescence ratio came out at 1.04 ± 0.035.

Take GGGCATGATG: the switch fluorescence ratio is 1.02 ± 0.055. With GCAGGGTAGC the figure was 1.04 ± 0.012.

For CGAGTAAAGA, the switch fluorescence ratio was determined as 1.03 ± 0.028. As to TGTGTTGGGT, the switch fluorescence ratio worked out at 0.98 ± 0.015. To AACAGAAAGG belongs 0.982 ± 0.045; to TTAACCAGTC, 1.04 ± 0.022. With ATATTGGTTT the figure was 0.997 ± 0.011; with CAAATTGCAG, 0.967 ± 0.026; with AAGGCTTAGT, 1.01 ± 0.052. Turning to TGGGTGGAGG, the switch fluorescence ratio worked out at 1.02 ± 0.043.

As to ACAAAGGGAC, the switch fluorescence ratio was found to be 1.06 ± 0.12.

For TATTTGGTT, the switch fluorescence ratio stood at 0.991 ± 0.024. Turning to TCTTTGCGCG, the switch fluorescence ratio came to 1.02 ± 0.019.

As for AGATTTAAAG, the switch fluorescence ratio came out at 0.98 ± 0.034. With CGCCTCAGGG the figure was 1.14 ± 0.018. With TGGGTAATTG the figure was 1.01 ± 0.019. With AGCTGTGTGT the figure was 1.012 ± 0.0047; with CATTTACGCT, 1.03 ± 0.014.

Regarding GCTTTTGAGG, the switch fluorescence ratio came to 1.04 ± 0.012. For the sequence ATCGTGAGGC, the switch fluorescence ratio worked out at 1.05 ± 0.022. To GCGTGAAGTA belongs 0.997 ± 0.012. With CAGCTACGTC the figure was 1.01 ± 0.04; with GGGGTCCGTG, 0.993 ± 0.067.

On to TTGTTGTTAC, for which the switch fluorescence ratio came out at 0.9998 ± 0.0074.

In the case of TCAAAAAAAT, the switch fluorescence ratio came to 1.02 ± 0.091. With TTGTAGTTTT the figure was 1.01 ± 0.038; with TTTGGGATAC, 1.24 ± 0.28. Regarding TCAATGGTTG, the switch fluorescence ratio amounted to 0.988 ± 0.028.

For the sequence TCGCGGGGGA, the switch fluorescence ratio was found to be 1.01 ± 0.037. Take TTGGGGGACG: the switch fluorescence ratio came out at 0.982 ± 0.048. For GGGGGTTCCC, the switch fluorescence ratio stood at 0.9833 ± 0.0017.

For the sequence CGCTTGGCTC, the switch fluorescence ratio was found to be 1.078 ± 0.0093.

For the origin of these results see the supplement of paper PMC10126150.
